One assay deals with T1, GST–eEF2K[1–402]–His6 (human, UniProt O00418 1-402).
T1 sequence: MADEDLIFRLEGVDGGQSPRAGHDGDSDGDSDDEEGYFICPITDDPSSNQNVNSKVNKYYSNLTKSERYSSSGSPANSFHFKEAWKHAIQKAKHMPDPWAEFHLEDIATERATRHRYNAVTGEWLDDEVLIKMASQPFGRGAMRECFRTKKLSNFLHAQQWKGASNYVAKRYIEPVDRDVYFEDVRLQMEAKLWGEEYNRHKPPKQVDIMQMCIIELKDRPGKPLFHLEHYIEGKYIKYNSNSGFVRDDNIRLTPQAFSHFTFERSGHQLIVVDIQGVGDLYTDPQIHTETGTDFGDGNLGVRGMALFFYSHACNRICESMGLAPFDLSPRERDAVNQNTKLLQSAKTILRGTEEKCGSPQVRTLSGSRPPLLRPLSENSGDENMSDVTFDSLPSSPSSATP
Description: ELISA.

The next assay has as its target T2, His6–Zb–eEF2K[48–336] (human, UniProt O00418 48-336).
T2 sequence: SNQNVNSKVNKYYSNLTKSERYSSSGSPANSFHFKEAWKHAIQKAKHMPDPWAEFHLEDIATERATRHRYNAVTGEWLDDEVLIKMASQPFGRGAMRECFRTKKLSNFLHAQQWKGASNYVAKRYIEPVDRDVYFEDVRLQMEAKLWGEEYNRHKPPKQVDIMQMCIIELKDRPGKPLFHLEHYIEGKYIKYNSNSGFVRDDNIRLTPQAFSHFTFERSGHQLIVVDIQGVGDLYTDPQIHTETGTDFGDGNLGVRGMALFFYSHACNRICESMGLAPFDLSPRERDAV
Description: pull-down.

The target in another assay is T3, eEF2K[48–336] (human, UniProt O00418 48-336).
T3 sequence: T2 sequence
Description: SEC.

B1: GST–eEF2K[478–725] (domain or fragment)
chain: SGRVCVEKWNLLNSSRLHLPRASAVALEVQRLNALDLEKKIGKSILGKVHLAMVRYHEGGRFCEKGEEWDQESAVFHLEHAANLGELEAIVGLGLMYSQLPHHILADVSLKETEENKTKGFDYLLKAAEAGDRQSMILVARAFDSGQNLSPDRCQDWLEALHWYNTALEMTDCDEGGEYDGMQDEPRYMMLAREAEMLFTGGYGLEKDPQRSGDLYTQAAEAAMEAMKGRLANQYYQKAEEAWAQMEE
For the molecule B1, the binding result with GST–eEF2K[1–402]–His6 is “binds”.

B2: His6–eEF2K[490–725] (domain or fragment)
chain: NSSRLHLPRASAVALEVQRLNALDLEKKIGKSILGKVHLAMVRYHEGGRFCEKGEEWDQESAVFHLEHAANLGELEAIVGLGLMYSQLPHHILADVSLKETEENKTKGFDYLLKAAEAGDRQSMILVARAFDSGQNLSPDRCQDWLEALHWYNTALEMTDCDEGGEYDGMQDEPRYMMLAREAEMLFTGGYGLEKDPQRSGDLYTQAAEAAMEAMKGRLANQYYQKAEEAWAQMEE
B2: in the assay with His6–Zb–eEF2K[48–336], the binding result was “binds”.

B3: eEF2K[490–725] (domain or fragment)
chain: B2 chain
For the molecule B3, the binding result with eEF2K[48–336] is reported as “binds”.

The record behind these values is paper PMC3268225 (Biochemical Journal, 2011).
